T1: Boi2 SH3 (BOI2_YEAST), P39969
T1 chain: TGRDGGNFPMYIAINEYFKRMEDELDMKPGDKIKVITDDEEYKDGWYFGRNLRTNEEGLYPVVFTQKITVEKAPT

T2: Rvs167 SH3 (RV167_YEAST), P39743
T2 chain: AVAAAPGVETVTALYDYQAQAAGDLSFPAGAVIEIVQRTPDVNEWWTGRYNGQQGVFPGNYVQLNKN

T3: Boi1 SH3 (BOI1_YEAST), P38041
T3 chain: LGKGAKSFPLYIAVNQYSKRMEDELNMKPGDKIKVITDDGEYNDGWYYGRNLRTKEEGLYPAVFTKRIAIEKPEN

T4: Yfr024 SH3 (LSB3_YEAST), P43603
T4 chain: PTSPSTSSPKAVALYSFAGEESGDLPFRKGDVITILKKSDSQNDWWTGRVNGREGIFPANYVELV

T5: Yhr016c SH3 (YSC84_YEAST), P32793
T5 chain: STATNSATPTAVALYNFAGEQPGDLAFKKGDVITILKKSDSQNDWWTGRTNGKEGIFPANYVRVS

In the first assay the target is T1, Boi2 SH3 (BOI2_YEAST), P39969. Kind of assay: SPOT array.
Molecule KKSPRLPHRNKKVT [YPR097W 347-360] came in with a normalised SPOT signal, Boehringer light units (BLU); mean over the file's lines of this peptide of 46.7.
Regarding KKYPRKPKKNLNLG [YDR485C 336-349], the normalised SPOT signal, Boehringer light units (BLU); mean over the file's lines of this peptide is 68.1.
KKDPFPPPKDLLVQ [YGR140W 421-434] gave a normalised SPOT signal, Boehringer light units (BLU); mean over the file's lines of this peptide of 49.2.
The same measure, in the same setting: then KKPPKIPKKVYTLE [YPR104C 439-452], with 22.
In turn, KLRPDLPVKNFVVK [YFR030W 641-654] showed a normalised SPOT signal, Boehringer light units (BLU); mean over the file's lines of this peptide of 15.3.
The same measure, in the same setting: for KNLPTIPIRLSGID [YGL085W 143-156] the value was 45.2; for KNLPLNPSKKLEGK [YDL027C 313-326], 54.4.
Molecule KKLPTGPSKKRQRK [YER164W 1280-1293] displayed a normalised SPOT signal, Boehringer light units (BLU); mean over the file's lines of this peptide of 32.6.
For the molecule KKDPNAPKRRLSAY [YBR089C-A 21-34], the normalised SPOT signal, Boehringer light units (BLU); mean over the file's lines of this peptide was 46.3.
As to KNSPLAPIKKNVEL [YLL021W 1085-1098], the normalised SPOT signal, Boehringer light units (BLU); mean over the file's lines of this peptide is 33.5.
The same measure, in the same setting: for KMTPSTPVRSISPI [YJR092W 851-864] the value was 71.2.
On the same count and under the same terms, then KPDPESPSKLRHYE [YBL101C 851-864], with 58.5; and KMFPFNPAKIKKDD [YLR115W 535-548], with 343.
Take KKDPNAPKRALSAY [YPR052C 15-28]: the normalised SPOT signal, Boehringer light units (BLU); mean over the file's lines of this peptide was 19.5.
On the same count and under the same terms, then KNFPTLPSKINSRH [YLL015W 63-76], with 25.8.
As to KLEPENPQKPSNTH [YFL054C 238-251], the normalised SPOT signal, Boehringer light units (BLU); mean over the file's lines of this peptide came out at 90.6.
Same read-out and setting: for KLKPSLPNKLVGKY [YPL242C 77-90] the value was 34.1; for KLPPRLPHRAAQRR [YIR018W 29-42], 219; for KLGPDTPIKVAGPL [YOR219C 616-629], 16.9.

The target in the next assay is T2, Rvs167 SH3 (RV167_YEAST), P39743. Kind of assay: SPOT array.
As for KKSPRLPHRNKKVT [YPR097W 347-360], the normalised SPOT signal, Boehringer light units (BLU); mean over the file's lines of this peptide was 2650.
Molecule KKYPRKPKKNLNLG [YDR485C 336-349] showed a normalised SPOT signal, Boehringer light units (BLU); mean over the file's lines of this peptide of 9.5.
The molecule KKDPFPPPKDLLVQ [YGR140W 421-434] yielded a normalised SPOT signal, Boehringer light units (BLU); mean over the file's lines of this peptide of 12.2.
KKPPKIPKKVYTLE [YPR104C 439-452] had a normalised SPOT signal, Boehringer light units (BLU); mean over the file's lines of this peptide of 33.3.
Same read-out and setting: for KLRPDLPVKNFVVK [YFR030W 641-654] the value was 86.7.
Consider KNLPTIPIRLSGID [YGL085W 143-156], for which the normalised SPOT signal, Boehringer light units (BLU); mean over the file's lines of this peptide was 29100.
Still for that read-out and setting: for KNLPLNPSKKLEGK [YDL027C 313-326] the value was 67.9.
On to KKLPTGPSKKRQRK [YER164W 1280-1293], for which the normalised SPOT signal, Boehringer light units (BLU); mean over the file's lines of this peptide came out at 9.1.
On to KKDPNAPKRRLSAY [YBR089C-A 21-34], for which the normalised SPOT signal, Boehringer light units (BLU); mean over the file's lines of this peptide came out at 151.
Still for that read-out and setting: for KNSPLAPIKKNVEL [YLL021W 1085-1098] the value was 26.7; for KMTPSTPVRSISPI [YJR092W 851-864], 280.
Still for that read-out and setting: for KPDPESPSKLRHYE [YBL101C 851-864] the value was 22.9; for KMFPFNPAKIKKDD [YLR115W 535-548], 425.
Still for that read-out and setting: then KKDPNAPKRALSAY [YPR052C 15-28], with 25.3.
The molecule KNFPTLPSKINSRH [YLL015W 63-76] returned a normalised SPOT signal, Boehringer light units (BLU); mean over the file's lines of this peptide of 35.2.
On the same count and under the same terms, then KLEPENPQKPSNTH [YFL054C 238-251], with 15.8; and KLKPSLPNKLVGKY [YPL242C 77-90], with 45.3; and KLPPRLPHRAAQRR [YIR018W 29-42], with 11100.
With KLGPDTPIKVAGPL [YOR219C 616-629], the normalised SPOT signal, Boehringer light units (BLU); mean over the file's lines of this peptide is 66.

In another assay the target is T3, Boi1 SH3 (BOI1_YEAST), P38041. Kind of assay: SPOT array.
In turn, KKSPRLPHRNKKVT [YPR097W 347-360] registered a normalised SPOT signal, Boehringer light units (BLU); mean over the file's lines of this peptide of 110.
The same measure, in the same setting: then KKYPRKPKKNLNLG [YDR485C 336-349], with 181.
For KKDPFPPPKDLLVQ [YGR140W 421-434], the normalised SPOT signal, Boehringer light units (BLU); mean over the file's lines of this peptide was determined as 103.
Take KKPPKIPKKVYTLE [YPR104C 439-452]: the normalised SPOT signal, Boehringer light units (BLU); mean over the file's lines of this peptide worked out at 56.8.
Molecule KLRPDLPVKNFVVK [YFR030W 641-654] registered a normalised SPOT signal, Boehringer light units (BLU); mean over the file's lines of this peptide of 239.
For the molecule KNLPTIPIRLSGID [YGL085W 143-156], the normalised SPOT signal, Boehringer light units (BLU); mean over the file's lines of this peptide amounted to 2120.
Still for that read-out and setting: for KNLPLNPSKKLEGK [YDL027C 313-326] the value was 309.
On the same count and under the same terms, for KKLPTGPSKKRQRK [YER164W 1280-1293] the value was 136.
The same measure, in the same setting: then KKDPNAPKRRLSAY [YBR089C-A 21-34], with 190; and KNSPLAPIKKNVEL [YLL021W 1085-1098], with 180; and KMTPSTPVRSISPI [YJR092W 851-864], with 181.
Take KPDPESPSKLRHYE [YBL101C 851-864]: the normalised SPOT signal, Boehringer light units (BLU); mean over the file's lines of this peptide is 69.8.
The same measure, in the same setting: for KMFPFNPAKIKKDD [YLR115W 535-548] the value was 112; for KKDPNAPKRALSAY [YPR052C 15-28], 57; for KNFPTLPSKINSRH [YLL015W 63-76], 244.
Take KLEPENPQKPSNTH [YFL054C 238-251]: the normalised SPOT signal, Boehringer light units (BLU); mean over the file's lines of this peptide was 76.
Same read-out and setting: for KLKPSLPNKLVGKY [YPL242C 77-90] the value was 9.1; for KLPPRLPHRAAQRR [YIR018W 29-42], 20000; for KLGPDTPIKVAGPL [YOR219C 616-629], 17.6.

The next assay deals with T4, Yfr024 SH3 (LSB3_YEAST), P43603. Kind of assay: SPOT array.
KKSPRLPHRNKKVT [YPR097W 347-360]: the normalised SPOT signal, Boehringer light units (BLU); mean over the file's lines of this peptide is 7040.
On the same count and under the same terms, for KKYPRKPKKNLNLG [YDR485C 336-349] the value was 149.
Same read-out and setting: for KKDPFPPPKDLLVQ [YGR140W 421-434] the value was 332; for KKPPKIPKKVYTLE [YPR104C 439-452], 1300.
Still for that read-out and setting: then KLRPDLPVKNFVVK [YFR030W 641-654], with 10700.
Turning to KNLPTIPIRLSGID [YGL085W 143-156], the normalised SPOT signal, Boehringer light units (BLU); mean over the file's lines of this peptide was 10800.
Still for that read-out and setting: for KNLPLNPSKKLEGK [YDL027C 313-326] the value was 98.6; for KKLPTGPSKKRQRK [YER164W 1280-1293], 808.
Same read-out and setting: then KKDPNAPKRRLSAY [YBR089C-A 21-34], with 241; and KNSPLAPIKKNVEL [YLL021W 1085-1098], with 252; and KMTPSTPVRSISPI [YJR092W 851-864], with 13400.
In turn, KPDPESPSKLRHYE [YBL101C 851-864] showed a normalised SPOT signal, Boehringer light units (BLU); mean over the file's lines of this peptide of 41.3.
The same measure, in the same setting: for KMFPFNPAKIKKDD [YLR115W 535-548] the value was 2490.
Molecule KKDPNAPKRALSAY [YPR052C 15-28] yielded a normalised SPOT signal, Boehringer light units (BLU); mean over the file's lines of this peptide of 286.
Molecule KNFPTLPSKINSRH [YLL015W 63-76] registered a normalised SPOT signal, Boehringer light units (BLU); mean over the file's lines of this peptide of 9910.
The same measure, in the same setting: for KLEPENPQKPSNTH [YFL054C 238-251] the value was 11.4; for KLKPSLPNKLVGKY [YPL242C 77-90], 3700.
Consider KLPPRLPHRAAQRR [YIR018W 29-42], for which the normalised SPOT signal, Boehringer light units (BLU); mean over the file's lines of this peptide is 30600.
As to KLGPDTPIKVAGPL [YOR219C 616-629], the normalised SPOT signal, Boehringer light units (BLU); mean over the file's lines of this peptide came to 196.

For another assay, the target named is T5, Yhr016c SH3 (YSC84_YEAST), P32793. The experiment in a line: SPOT array.
KKSPRLPHRNKKVT [YPR097W 347-360] had a normalised SPOT signal, Boehringer light units (BLU); mean over the file's lines of this peptide of 1790.
Still for that read-out and setting: then KKYPRKPKKNLNLG [YDR485C 336-349], with 408; and KKDPFPPPKDLLVQ [YGR140W 421-434], with 109.
In turn, KKPPKIPKKVYTLE [YPR104C 439-452] showed a normalised SPOT signal, Boehringer light units (BLU); mean over the file's lines of this peptide of 112.
The same measure, in the same setting: then KLRPDLPVKNFVVK [YFR030W 641-654], with 95.4.
Still for that read-out and setting: for KNLPTIPIRLSGID [YGL085W 143-156] the value was 3830; for KNLPLNPSKKLEGK [YDL027C 313-326], 61.3; for KKLPTGPSKKRQRK [YER164W 1280-1293], 85.9.
The same measure, in the same setting: for KKDPNAPKRRLSAY [YBR089C-A 21-34] the value was 288.
Consider KNSPLAPIKKNVEL [YLL021W 1085-1098], for which the normalised SPOT signal, Boehringer light units (BLU); mean over the file's lines of this peptide is 15.7.
Same read-out and setting: then KMTPSTPVRSISPI [YJR092W 851-864], with 2960; and KPDPESPSKLRHYE [YBL101C 851-864], with 241; and KMFPFNPAKIKKDD [YLR115W 535-548], with 404.
On the same count and under the same terms, for KKDPNAPKRALSAY [YPR052C 15-28] the value was 162.
As to KNFPTLPSKINSRH [YLL015W 63-76], the normalised SPOT signal, Boehringer light units (BLU); mean over the file's lines of this peptide was 151.
Molecule KLEPENPQKPSNTH [YFL054C 238-251] displayed a normalised SPOT signal, Boehringer light units (BLU); mean over the file's lines of this peptide of 94.6.
Still for that read-out and setting: then KLKPSLPNKLVGKY [YPL242C 77-90], with 0.
In turn, KLPPRLPHRAAQRR [YIR018W 29-42] displayed a normalised SPOT signal, Boehringer light units (BLU); mean over the file's lines of this peptide of 21700.
On the same count and under the same terms, for KLGPDTPIKVAGPL [YOR219C 616-629] the value was 105.

Values taken from PMC314469, “Protein Interaction Networks by Proteome Peptide Scanning” (PLoS Biology, 2004).
